Reference: patent US20240124586A1

How the values were obtained:
human C1Q (human) [1] = target: human C1Q (human) (UniProt P02745); assay: ELISA, antibody coated on the plate, C1q titrated (the concentration is that of C1q)
human C1Q (human) [2] = target: human C1Q (human) (UniProt P02745); assay: ELISA, antibody coated on the plate, C1q titrated (axis: [C1q] nM), anti-C1q-HRP detection
[3] = target: human CD19 on CD19+ B cell lines (Ramos, Raji) (human) (UniProt P15391); assay: FACS bridging of pre-labelled Jurkat (CD3+) and Raji (CD19+) cells mixed 1:1, negative control
human CD19 on CD19+ B cell lines (Ramos, Raji) (human), sequence (P15391 20-556): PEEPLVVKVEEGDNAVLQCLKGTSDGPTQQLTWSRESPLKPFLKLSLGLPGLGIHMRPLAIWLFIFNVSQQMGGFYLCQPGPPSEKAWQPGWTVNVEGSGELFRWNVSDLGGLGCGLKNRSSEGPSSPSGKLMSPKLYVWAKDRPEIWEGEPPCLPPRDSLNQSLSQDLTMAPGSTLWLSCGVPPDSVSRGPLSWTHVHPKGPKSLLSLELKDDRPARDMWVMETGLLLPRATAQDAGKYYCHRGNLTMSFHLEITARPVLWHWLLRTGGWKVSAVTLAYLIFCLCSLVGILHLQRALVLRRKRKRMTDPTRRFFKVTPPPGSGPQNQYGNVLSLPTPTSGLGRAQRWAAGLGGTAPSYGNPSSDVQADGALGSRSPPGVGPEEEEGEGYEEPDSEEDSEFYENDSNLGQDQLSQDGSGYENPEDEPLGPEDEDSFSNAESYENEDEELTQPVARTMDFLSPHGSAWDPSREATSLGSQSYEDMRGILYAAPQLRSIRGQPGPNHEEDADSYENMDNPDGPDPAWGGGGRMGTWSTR

[4] = target: human CD3 on CD3+ Jurkat cells (human) (UniProt P07766); assay: as above
human CD3 on CD3+ Jurkat cells (human), sequence (P07766 23-207, chain 1 of 3): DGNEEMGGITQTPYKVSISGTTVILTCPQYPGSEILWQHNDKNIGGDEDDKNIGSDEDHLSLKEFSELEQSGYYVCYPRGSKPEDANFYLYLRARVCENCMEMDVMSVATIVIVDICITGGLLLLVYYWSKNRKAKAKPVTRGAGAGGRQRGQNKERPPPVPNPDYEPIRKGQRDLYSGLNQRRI
human CD3 on CD3+ Jurkat cells (human), sequence (P09693 23-182, chain 2 of 3, further chain): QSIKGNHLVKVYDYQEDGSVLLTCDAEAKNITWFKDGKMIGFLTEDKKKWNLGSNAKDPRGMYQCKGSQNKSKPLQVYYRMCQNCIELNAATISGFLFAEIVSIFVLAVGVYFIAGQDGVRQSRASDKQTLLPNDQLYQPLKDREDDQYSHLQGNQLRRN
human CD3 on CD3+ Jurkat cells (human), sequence (P04234 22-171, chain 3 of 3, further chain): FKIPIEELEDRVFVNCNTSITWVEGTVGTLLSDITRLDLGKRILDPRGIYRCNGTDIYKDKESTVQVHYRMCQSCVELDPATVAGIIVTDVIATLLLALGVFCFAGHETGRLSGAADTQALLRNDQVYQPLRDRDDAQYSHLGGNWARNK

human C1Q (human), sequence (P02745 23-245 limits assumed, chain 1 of 3): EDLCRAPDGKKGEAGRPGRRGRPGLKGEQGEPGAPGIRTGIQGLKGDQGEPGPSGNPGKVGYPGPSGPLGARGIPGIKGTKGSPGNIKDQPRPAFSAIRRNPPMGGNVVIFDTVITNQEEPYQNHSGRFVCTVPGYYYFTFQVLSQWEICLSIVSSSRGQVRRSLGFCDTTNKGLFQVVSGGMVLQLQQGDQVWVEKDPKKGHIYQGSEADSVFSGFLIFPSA
human C1Q (human), sequence (P02746 28-253 limits assumed, chain 2 of 3, further chain): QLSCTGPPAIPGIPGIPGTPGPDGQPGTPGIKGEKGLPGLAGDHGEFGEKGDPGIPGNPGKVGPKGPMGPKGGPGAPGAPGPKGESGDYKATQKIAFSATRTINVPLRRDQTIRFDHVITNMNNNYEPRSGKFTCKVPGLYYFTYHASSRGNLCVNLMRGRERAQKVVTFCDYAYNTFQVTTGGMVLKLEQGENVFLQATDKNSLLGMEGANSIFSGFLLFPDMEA
human C1Q (human), sequence (P02747 29-245 limits assumed, chain 3 of 3, further chain): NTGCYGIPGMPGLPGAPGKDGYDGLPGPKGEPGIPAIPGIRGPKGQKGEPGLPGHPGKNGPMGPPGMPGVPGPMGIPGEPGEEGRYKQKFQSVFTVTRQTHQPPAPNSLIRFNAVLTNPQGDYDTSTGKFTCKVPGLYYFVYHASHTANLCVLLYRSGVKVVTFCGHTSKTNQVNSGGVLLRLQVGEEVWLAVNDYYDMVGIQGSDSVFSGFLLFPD

Row | EC50 (read off the curve) (human C1Q (human) [1]) | EC50 (read off the curve) (human C1Q (human) [2]) | Q2 % (events positive for both the CD3+ and the CD19+ cell label) [3] | Q2 % (events positive for both the CD3+ and the CD19+ cell label) [4] | Substance
1 | 30 nM | 30 nM | – | – | control human IgG1 antibody
2 | – | – | 4.91% | 4.91% | irrelevant IgG (antibody)
